Molecular target: T1, human LILRB1 protein (LILRB1-His, RnD systems Cat. No. 8989-T2) (human, UniProt Q8NHL6 24-458, limits assumed)
T1 construct: Bought protein; also called LILRB1 antigen; the antigen, LILRB1; not shown: His tag
Assay: SPR, Biacore T200; antibody captured by anti-human IgG (Fc), LILRB1-His injected 25-400 nM
Experimental: The binding affinities of the 19 antibodies, which were selected in Example 3, to the antigen, LILRB1, were measured using Biacore T200 (GE healthcare). An anti-human IgG (Fc) antibody (GE healthcare, Cat. No. BR-1008-39, final concentration of 25 μg/mL) was flowed at the flow rate of 5 μL/min for 360 seconds to be immobilized at 5000-7000 RU on Series S Sensor Chip CM5 (GE healthcare, Cat. No. BR-1005-30) using Amine Coupling Kit (GE healthcare, Cat. No. BR-1000-50).

T1 sequence (Q8NHL6 24-458 limits assumed): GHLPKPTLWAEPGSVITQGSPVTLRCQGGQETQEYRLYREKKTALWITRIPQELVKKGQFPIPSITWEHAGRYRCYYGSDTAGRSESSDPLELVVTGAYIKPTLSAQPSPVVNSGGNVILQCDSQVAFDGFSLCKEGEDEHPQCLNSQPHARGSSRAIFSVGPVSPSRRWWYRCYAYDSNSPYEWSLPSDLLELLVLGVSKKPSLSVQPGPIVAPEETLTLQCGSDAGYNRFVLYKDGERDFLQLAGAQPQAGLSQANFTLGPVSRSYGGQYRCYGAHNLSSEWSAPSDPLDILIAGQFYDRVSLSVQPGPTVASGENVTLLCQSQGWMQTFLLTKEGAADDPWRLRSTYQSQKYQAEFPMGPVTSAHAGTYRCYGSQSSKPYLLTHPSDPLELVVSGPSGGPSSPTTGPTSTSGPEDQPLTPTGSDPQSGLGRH

Kd: 24.1 nM
koff: 0.000298 s⁻¹
kon: 12300 M⁻¹ s⁻¹
B1: anti-LILRB1 antibody No. 10 (antibody, human IgG4 S228P, kappa, F234A L235A, V domains shown)
VH: QVQLVQSGAEVKKPGSSVKVSCKASGGTFSSHYMHWVRQAPGQGLEWMGWISPYLGSTNYAQKFQGRVTITADESTSTAYMELSSLRSEDTAVYYCARDETGSTYGAFDYWGQGTLVTVSS
VL: DIQMTQSPSSLSASVGDRVTITCRASQSISNYLNWYQQKPGKAPKLLIYAASNLQSGVPSRFSGSGSGTDFTLTISSLQPEDFATYYCQQSYSFPFTFGQGTKVEIKR
notes: Human IgG4 / kappa, expressed in ExpiCHO-S cells; also called clone 10
